# Source: patent publication US20230002480A1
# Tests used:
# [1] = target: HIV-1 93TH057 gp120 coree (HIV-1); assay: PDB 5te6 structure, PISA interface
# [2] = target: HIV-1 Env of pseudovirus 191955_A11 (clade A, T/F) (HIV-1); assay: cell-based or functional assay
# [3] = target: HIV-1 Env of pseudovirus 6545.v4.c1 (HIV-1); assay: cell-based or functional assay
# [4] = target: HIV-1 Env of pseudovirus 620345.c01 (clade CRF01_AE) (HIV-1); assay: cell-based or functional assay
# [5] = target: MuLV Env pseudovirus (negative control) (MuLV); assay: cell-based or functional assay
# [6] = target: HIV-1 Env of pseudovirus Ce1086_B2 (clade C, T/F) (HIV-1); assay: cell-based or functional assay
# [7] = target: HIV-1 Env of pseudovirus CNE20 (clade BC) (HIV-1); assay: cell-based or functional assay
# [8] = target: HIV-1 Env of pseudovirus 6952.v1.c20 (clade CD) (HIV-1); assay: cell-based or functional assay
# [9] = target: HIV-1 Env of pseudovirus T250-4 (clade CRF02_AG) (HIV-1); assay: cell-based or functional assay
# [10] = target: HIV-1 Env of pseudovirus 3103.v3.c10 (clade ACD) (HIV-1); assay: cell-based or functional assay
# [11] = target: HIV-1 Env of pseudovirus CAP210.2.00.E8 (clade C) (HIV-1); assay: cell-based or functional assay
# [12] = target: HIV-1 Env of pseudovirus BJOX028000.10.3 (clade CRF01_AE, T/F) (HIV-1); assay: cell-based or functional assay
# [13] = target: HIV-1 Env of pseudovirus X1254_c3 (clade G) (HIV-1); assay: cell-based or functional assay
# [14] = target: HIV-1 Env of pseudovirus PVO.4 (clade B) (HIV-1); assay: cell-based or functional assay
# [15] = target: HIV-1 Env of pseudovirus Du422.1 (clade C) (HIV-1); assay: cell-based or functional assay
# [16] = target: HIV-1 Env of pseudovirus 62357_14_D3_4589 (clade B, T/F) (HIV-1); assay: cell-based or functional assay
# [17] = target: HIV-1 Env of pseudovirus AC10.0.29 (clade B) (HIV-1); assay: cell-based or functional assay
# [18] = target: HIV-1 Env of pseudovirus Ce1172_H1 (clade C, T/F) (HIV-1); assay: cell-based or functional assay
# [19] = target: HIV-1 Env of pseudovirus Du172.17 (clade C) (HIV-1); assay: cell-based or functional assay
# [20] = target: HIV-1 Env of pseudovirus X2088_c9 (clade G) (HIV-1); assay: cell-based or functional assay
# [21] = target: HIV-1 Env of pseudovirus Q259.d2.17 (clade A) (HIV-1); assay: cell-based or functional assay
# [22] = target: HIV-1 Env of pseudovirus 3016.v5.c45 (clade D) (HIV-1); assay: cell-based or functional assay
# [23] = target: HIV-1 Env of pseudovirus R1166.c01 (clade CRF01_AE) (HIV-1); assay: cell-based or functional assay
# [24] = target: monomeric HIV-1 Ba-L gp120 (HIV-1 Ba-L); assay: retention on gp120 affinity column
# [25] = target: HIV-1 93TH057 gp120 coree (HIV-1); assay: PDB 3ngb structure, PISA interface
substance,measurement,setting,value
N6 Fab,Ratio of OD/ID buried surface area,[1],7.58
same,"buried surface area, CDR H1",[1],38 Å^2
same,"buried surface area, CDR H2",[1],621 Å^2
same,"buried surface area, CDR L1",[1],43 Å^2
same,"buried surface area, CDR L2",[1],0 Å^2
same,"buried surface area, CDR L3",[1],172 Å^2
same,"buried surface area, CDRH3",[1],123 Å^2
same,"buried surface area, Fab heavy and light chain total",[1],1180 Å^2
same,"buried surface area, Fab heavy chain total",[1],928 Å^2
same,"buried surface area, Fab light chain total",[1],251 Å^2
same,"buried surface area, gp120 CD4 binding loop of OD",[1],206 Å^2
same,"buried surface area, gp120 Loop D of OD",[1],332 Å^2
same,"buried surface area, gp120 Loop V5 of OD",[1],339 Å^2
same,"buried surface area, gp120 inner domain (ID)",[1],132 Å^2
same,"buried surface area, gp120 outer domain (OD)",[1],1000 Å^2
same,"buried surface area, gp120 total",[1],1130 Å^2
same,"buried surface area, heavy chain FWR",[1],146 Å^2
same,"buried surface area, light chain FWR",[1],36 Å^2
N49P7-54TY (antibody),"IC50, titer in TZM.bl cells",[2],3.04 µg/mL
same,"IC80, titer in TZM.bl cells",[2],> 25 µg/mL
same,MPI,[2],72
same,"IC50, titer in TZM.bl cells",[3],3.01 µg/mL
same,"IC80, titer in TZM.bl cells",[3],> 25 µg/mL
same,MPI,[3],74
same,"IC50, titer in TZM.bl cells",[4],> 25 µg/mL
same,"IC80, titer in TZM.bl cells",[4],> 25 µg/mL
same,MPI,[4],0
same,"IC50, titer in TZM.bl cells",[5],> 25 µg/mL
same,"IC80, titer in TZM.bl cells",[5],> 25 µg/mL
same,MPI,[5],0
same,"IC50, titer in TZM.bl cells",[6],0.067 µg/mL
same,"IC80, titer in TZM.bl cells",[6],0.339 µg/mL
same,MPI,[6],100
same,"IC50, titer in TZM.bl cells",[7],0.046 µg/mL
same,"IC80, titer in TZM.bl cells",[7],0.16 µg/mL
same,MPI,[7],100
same,"IC50, titer in TZM.bl cells",[8],> 25 µg/mL
same,"IC80, titer in TZM.bl cells",[8],> 25 µg/mL
same,MPI,[8],20
same,"IC50, titer in TZM.bl cells",[9],1.02 µg/mL
same,"IC80, titer in TZM.bl cells",[9],19.6 µg/mL
same,MPI,[9],83
same,"IC50, titer in TZM.bl cells",[10],0.151 µg/mL
same,"IC80, titer in TZM.bl cells",[10],0.55 µg/mL
same,MPI,[10],100
same,"IC50, titer in TZM.bl cells",[11],0.691 µg/mL
same,"IC80, titer in TZM.bl cells",[11],3.33 µg/mL
same,MPI,[11],97
same,"IC50, titer in TZM.bl cells",[12],0.009 µg/mL
same,"IC80, titer in TZM.bl cells",[12],0.044 µg/mL
same,MPI,[12],100
same,"IC50, titer in TZM.bl cells",[13],0.145 µg/mL
same,"IC80, titer in TZM.bl cells",[13],0.599 µg/mL
same,MPI,[13],100
same,"IC50, titer in TZM.bl cells",[14],0.079 µg/mL
same,"IC80, titer in TZM.bl cells",[14],0.314 µg/mL
same,MPI,[14],100
same,"IC50, titer in TZM.bl cells",[15],0.402 µg/mL
same,"IC80, titer in TZM.bl cells",[15],2.02 µg/mL
same,MPI,[15],96
same,"IC50, titer in TZM.bl cells",[16],0.055 µg/mL
same,"IC80, titer in TZM.bl cells",[16],0.192 µg/mL
same,MPI,[16],100
same,"IC50, titer in TZM.bl cells",[17],> 25 µg/mL
same,"IC80, titer in TZM.bl cells",[17],> 25 µg/mL
same,MPI,[17],40
same,"IC50, titer in TZM.bl cells",[18],> 25 µg/mL
same,"IC80, titer in TZM.bl cells",[18],> 25 µg/mL
same,MPI,[18],23
same,"IC50, titer in TZM.bl cells",[19],0.124 µg/mL
same,"IC80, titer in TZM.bl cells",[19],0.529 µg/mL
same,MPI,[19],100
same,"IC50, titer in TZM.bl cells",[20],0.172 µg/mL
same,"IC80, titer in TZM.bl cells",[20],0.572 µg/mL
same,MPI,[20],100
same,"IC50, titer in TZM.bl cells",[21],0.132 µg/mL
same,"IC80, titer in TZM.bl cells",[21],1.13 µg/mL
same,MPI,[21],95
same,"IC50, titer in TZM.bl cells",[22],0.206 µg/mL
same,"IC80, titer in TZM.bl cells",[22],1.91 µg/mL
same,MPI,[22],92
same,"IC50, titer in TZM.bl cells",[23],0.131 µg/mL
same,"IC80, titer in TZM.bl cells",[23],0.47 µg/mL
same,MPI,[23],100
N49P7YTE (antibody),"IC50, titer in TZM.bl cells",[2],39 µg/mL
same,"IC80, titer in TZM.bl cells",[2],> 50 µg/mL
same,MPI,[2],56
same,"IC50, titer in TZM.bl cells",[3],> 50 µg/mL
same,"IC80, titer in TZM.bl cells",[3],> 50 µg/mL
same,MPI,[3],45
same,"IC50, titer in TZM.bl cells",[4],> 50 µg/mL
same,"IC80, titer in TZM.bl cells",[4],> 50 µg/mL
same,MPI,[4],0
same,"IC50, titer in TZM.bl cells",[5],> 50 µg/mL
same,"IC80, titer in TZM.bl cells",[5],> 50 µg/mL
same,MPI,[5],4
same,"IC50, titer in TZM.bl cells",[6],0.113 µg/mL
same,"IC80, titer in TZM.bl cells",[6],0.53 µg/mL
same,MPI,[6],99
same,"IC50, titer in TZM.bl cells",[7],0.11 µg/mL
same,"IC80, titer in TZM.bl cells",[7],0.317 µg/mL
same,MPI,[7],99
same,"IC50, titer in TZM.bl cells",[8],> 50 µg/mL
same,"IC80, titer in TZM.bl cells",[8],> 50 µg/mL
same,MPI,[8],13
same,"IC50, titer in TZM.bl cells",[9],> 50 µg/mL
same,"IC80, titer in TZM.bl cells",[9],> 50 µg/mL
same,MPI,[9],43
same,"IC50, titer in TZM.bl cells",[10],0.322 µg/mL
same,"IC80, titer in TZM.bl cells",[10],0.583 µg/mL
same,MPI,[10],100
same,"IC50, titer in TZM.bl cells",[11],3.11 µg/mL
same,"IC80, titer in TZM.bl cells",[11],13.9 µg/mL
same,MPI,[11],99
same,"IC50, titer in TZM.bl cells",[12],0.018 µg/mL
same,"IC80, titer in TZM.bl cells",[12],0.155 µg/mL
same,MPI,[12],100
same,"IC50, titer in TZM.bl cells",[13],26.2 µg/mL
same,"IC80, titer in TZM.bl cells",[13],> 50 µg/mL
same,MPI,[13],59
same,"IC50, titer in TZM.bl cells",[14],0.088 µg/mL
same,"IC80, titer in TZM.bl cells",[14],0.394 µg/mL
same,MPI,[14],100
same,"IC50, titer in TZM.bl cells",[15],13.2 µg/mL
same,"IC80, titer in TZM.bl cells",[15],> 50 µg/mL
same,MPI,[15],76
same,"IC50, titer in TZM.bl cells",[16],0.039 µg/mL
same,"IC80, titer in TZM.bl cells",[16],0.173 µg/mL
same,MPI,[16],100
same,"IC50, titer in TZM.bl cells",[17],> 50 µg/mL
same,"IC80, titer in TZM.bl cells",[17],> 50 µg/mL
same,MPI,[17],28
same,"IC50, titer in TZM.bl cells",[18],> 50 µg/mL
same,"IC80, titer in TZM.bl cells",[18],> 50 µg/mL
same,MPI,[18],12
same,"IC50, titer in TZM.bl cells",[19],0.283 µg/mL
same,"IC80, titer in TZM.bl cells",[19],0.953 µg/mL
same,MPI,[19],100
same,"IC50, titer in TZM.bl cells",[20],0.329 µg/mL
same,"IC80, titer in TZM.bl cells",[20],1.06 µg/mL
same,MPI,[20],100
same,"IC50, titer in TZM.bl cells",[21],5.34 µg/mL
same,"IC80, titer in TZM.bl cells",[21],44.1 µg/mL
same,MPI,[21],82
same,"IC50, titer in TZM.bl cells",[22],1.15 µg/mL
same,"IC80, titer in TZM.bl cells",[22],9.65 µg/mL
same,MPI,[22],89
same,"IC50, titer in TZM.bl cells",[23],0.232 µg/mL
same,"IC80, titer in TZM.bl cells",[23],0.782 µg/mL
same,MPI,[23],100
Synagis (antibody),recovery from gp120 affinity column,[24],< 1%
VRC01 Fab,Ratio of OD/ID buried surface area,[25],9.68
same,"buried surface area, CDR H1",[25],3 Å^2
same,"buried surface area, CDR H2",[25],598 Å^2
same,"buried surface area, CDR L1",[25],50 Å^2
same,"buried surface area, CDR L2",[25],0 Å^2
same,"buried surface area, CDR L3",[25],132 Å^2
same,"buried surface area, CDRH3",[25],160 Å^2
same,"buried surface area, Fab heavy and light chain total",[25],1200 Å^2
same,"buried surface area, Fab heavy chain total",[25],897 Å^2
same,"buried surface area, Fab light chain total",[25],306 Å^2
same,"buried surface area, gp120 CD4 binding loop of OD",[25],188 Å^2
same,"buried surface area, gp120 Loop D of OD",[25],322 Å^2
same,"buried surface area, gp120 Loop V5 of OD",[25],301 Å^2
same,"buried surface area, gp120 inner domain (ID)",[25],107 Å^2
same,"buried surface area, gp120 outer domain (OD)",[25],1040 Å^2
same,"buried surface area, gp120 total",[25],1140 Å^2
same,"buried surface area, heavy chain FWR",[25],136 Å^2
same,"buried surface area, light chain FWR",[25],124 Å^2
